Data on two substances can be found in article PMC3777900.

The target in this test is Mouse myosin 5a HMM (m5-HMM), heavy chain (mouse) (UniProt Q99104). Nature of the test: photo-bleaching step counting by TIRF microscopy; single molecules bound on a cover glass surface after exchange with Alexa488-CaM at 5:1 (Alexa488-CaM: myosin); step-wise photo-bleaching counted.
Sequence of UniProt Q99104 (Q99104 whole entry): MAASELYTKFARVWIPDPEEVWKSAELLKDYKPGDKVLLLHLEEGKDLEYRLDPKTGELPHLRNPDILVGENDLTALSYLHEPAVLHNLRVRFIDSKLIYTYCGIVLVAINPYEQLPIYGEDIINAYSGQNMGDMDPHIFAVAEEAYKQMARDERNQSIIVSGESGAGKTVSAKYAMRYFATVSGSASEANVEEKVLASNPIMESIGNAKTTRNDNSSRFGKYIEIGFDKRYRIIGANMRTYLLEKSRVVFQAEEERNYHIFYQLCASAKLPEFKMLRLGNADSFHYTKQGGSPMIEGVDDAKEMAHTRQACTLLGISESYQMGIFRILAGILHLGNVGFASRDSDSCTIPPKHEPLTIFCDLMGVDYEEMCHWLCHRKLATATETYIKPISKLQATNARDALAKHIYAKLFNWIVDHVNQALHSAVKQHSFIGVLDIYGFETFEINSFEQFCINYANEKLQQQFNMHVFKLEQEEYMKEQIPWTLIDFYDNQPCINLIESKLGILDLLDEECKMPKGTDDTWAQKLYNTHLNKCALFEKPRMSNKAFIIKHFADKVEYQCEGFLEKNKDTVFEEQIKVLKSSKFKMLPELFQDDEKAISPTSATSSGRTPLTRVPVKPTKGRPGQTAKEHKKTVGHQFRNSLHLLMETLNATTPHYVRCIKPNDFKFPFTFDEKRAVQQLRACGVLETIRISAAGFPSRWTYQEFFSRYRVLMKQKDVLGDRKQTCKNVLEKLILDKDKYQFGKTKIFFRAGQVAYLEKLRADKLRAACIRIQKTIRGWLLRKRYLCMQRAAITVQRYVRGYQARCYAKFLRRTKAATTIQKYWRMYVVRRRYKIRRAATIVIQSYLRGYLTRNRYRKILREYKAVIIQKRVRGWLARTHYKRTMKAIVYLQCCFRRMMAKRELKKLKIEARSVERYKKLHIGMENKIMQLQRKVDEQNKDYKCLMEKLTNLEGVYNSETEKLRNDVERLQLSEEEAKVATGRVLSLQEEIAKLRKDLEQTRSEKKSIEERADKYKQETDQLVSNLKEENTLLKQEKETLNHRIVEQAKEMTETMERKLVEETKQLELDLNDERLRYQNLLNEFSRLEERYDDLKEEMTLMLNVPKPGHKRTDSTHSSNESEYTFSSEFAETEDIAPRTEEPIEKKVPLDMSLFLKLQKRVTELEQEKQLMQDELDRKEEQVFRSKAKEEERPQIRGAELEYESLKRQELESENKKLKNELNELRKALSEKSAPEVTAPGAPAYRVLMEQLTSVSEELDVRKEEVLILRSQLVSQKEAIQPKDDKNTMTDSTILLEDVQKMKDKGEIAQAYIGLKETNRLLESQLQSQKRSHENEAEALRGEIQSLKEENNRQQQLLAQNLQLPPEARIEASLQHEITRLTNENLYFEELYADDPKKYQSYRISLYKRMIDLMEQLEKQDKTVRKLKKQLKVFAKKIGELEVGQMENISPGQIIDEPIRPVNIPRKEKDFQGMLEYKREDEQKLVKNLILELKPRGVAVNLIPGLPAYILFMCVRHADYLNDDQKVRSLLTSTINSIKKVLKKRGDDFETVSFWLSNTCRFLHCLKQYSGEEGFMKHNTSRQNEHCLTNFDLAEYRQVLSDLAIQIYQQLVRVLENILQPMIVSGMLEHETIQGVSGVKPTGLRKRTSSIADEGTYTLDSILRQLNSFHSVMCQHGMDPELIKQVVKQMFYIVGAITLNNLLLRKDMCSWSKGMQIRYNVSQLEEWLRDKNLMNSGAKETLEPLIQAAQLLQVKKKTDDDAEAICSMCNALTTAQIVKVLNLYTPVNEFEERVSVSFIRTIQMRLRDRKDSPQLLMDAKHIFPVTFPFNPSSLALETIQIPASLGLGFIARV

In turn, “Alexa Fluor 488-labeled bovine calmodulin (from UniProt P62157 1-149) (natural protein)” displayed an Alexa488-CaM molecules exchanged into one myosin molecule of 2.
For the substance “Mouse myosin 5a HMM (m5-HMM), heavy chain (from UniProt Q99104 1-1853) (domain or fragment)”, the stoichiometry N was 2.

As a reminder, the stoichiometry N is a count of units in the complex or per binding partner.
